Numbering of substitutions follows the chain as printed.
T1: Human Angiopoietin-2 full-length (hAng2) (human, UniProt O15123 19-496)
T1 construct: The cell assays used full-length hAng2 from R&D Systems; also called human Ang2; A2
T1 sequence: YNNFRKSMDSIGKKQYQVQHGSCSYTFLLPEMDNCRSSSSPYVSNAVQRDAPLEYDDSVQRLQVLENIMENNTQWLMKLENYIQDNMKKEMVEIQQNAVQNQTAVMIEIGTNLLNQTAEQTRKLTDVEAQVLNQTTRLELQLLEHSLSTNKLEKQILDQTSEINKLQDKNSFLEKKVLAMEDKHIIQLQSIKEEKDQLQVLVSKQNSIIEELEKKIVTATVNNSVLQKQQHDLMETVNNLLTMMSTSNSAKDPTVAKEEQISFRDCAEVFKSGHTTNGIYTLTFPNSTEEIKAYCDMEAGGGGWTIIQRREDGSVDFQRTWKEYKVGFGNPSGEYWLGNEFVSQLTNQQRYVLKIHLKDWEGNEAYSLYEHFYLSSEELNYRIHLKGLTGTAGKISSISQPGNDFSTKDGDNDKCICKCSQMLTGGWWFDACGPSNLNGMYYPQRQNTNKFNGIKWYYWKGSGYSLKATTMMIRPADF

B1: mouse anti-Ang2 antibody 2C8 (antibody, V domains shown)
VH: QVQLQQSGPQLVRPGASVKISCKASGYSFTSYWMHWVKQRPGQGLEWIGMIDPSDSETRLNQKFKDKASLTVDKSSSTAYMQLSSPTSGDSAVYYCARRFYYGSDWYFDVWGAGSTVTVSS
VL: DIVMTQSHKFMSTSVGDRVSITCKASQDVGTAVAWYQQKPGQSPKLLIYWASTRHTGVPDRFTGSGSGTDFTLTISNVQSEDLADYFCQQYSSYPLTFGSGTKLEIK
B2: mouse anti-Ang2 antibody 4E2 (antibody, V domains shown)
VH: EVQLQQSGPELEKPGASVKISCKASGYSFTGYNMNWVKQSNGKSLEWIGNIDPYYGGTSYNQKFKGKATLTVDKSSSTAYMQLKSLTSEDSAVYYCVRYGNYVDYWGQGTTLTVSS
VL: DIVMTQSHKFMSTSVGDRVSITCKASQDVSTAVAWYQQKPGQSPKLLIYWASTRHTGVPDRFTGSGSGTDYTLTISSVQAEDLALYYCQQHYNTPPTFGSGTKLEIK
notes: Mouse monoclonal antibody from a hybridoma, purified on Protein G
B3: mouse anti-Ang2 antibody 2F10 (antibody, V domains shown)
VH: QVQLVESGGGLVKPGGSLKLSCAASGFTFSDYYMYWIRQTPEKRLEWVATINDGGSYTYYPDSVKGRFTISRDNAKNNLYLQMSSLKSEDTAMYYCARDWGLRPWFVYWGQGTLVTVSA
VL: B2 VL with N93T
notes: as for B2
B4: mouse anti-Ang2 antibody 4B9 (antibody, V domains shown)
VH: B3 VH with Q1E, I37V, N52S, D53V, Y57F
VL: B2 VL with N93S
notes: Mouse monoclonal antibody from a hybridoma (KCLRF-BP-00418), purified on Protein G
B5: humanized anti-Ang2 antibody 2C8H32 (antibody, V domains shown)
VH: QVQLVQSGAEVKKPGASVKVSCKASGYSFTSYWMHWVRQAPGQGLEWIGMIDPSDSETRLNQKFKDKASMTRDTSTSTVYMELSSLRSEDTAVYYCARRFYYGSDWYFDVWGQGTLVTVSS
VL: DIQLTQSPSFLSASVGDRVSITCKASQDVGTAVAWYQQKPGKAPKLLIYWASTRHTGVPDRFSGSGSGTEFTLTISSLQPEDFATYYCQQYSSYPLTFGQGTKVEIK
notes: Full-length human IgG1
B6: 4B9H11G4 (human IgG4 class antibody of 4B9H11) (antibody, V domains shown)
VH: QVQLVESGGGLVKPGGSLRLSCAASGFTFSDYYMYWIRQAPGKGLEWVSTISVGGSFTYYPDSVKGRFTISRDNAKNSLYLQMNSLRAEDTAVYYCARDWGLRPWFVYWGQGTLVTVSS
VL: B5 VL with L4M, F10S, S20T, G30S, D60S, E70D, Y91H, S92Y, Y94T, L96P
notes: The heavy chain constant region was replaced by an IgG4 class constant region; The sentence prints '4B9 heavy chain gene' where 4B9H11 is meant; also called 4B9H11-IgG4
B7: humanized anti-Ang2 antibody 2C8H43 (antibody, V domains shown)
VH: B5 VH with R38K
VL: B5 VL with T85D, Y87F
notes: Full-length human IgG1
B8: humanized anti-Ang2 antibody 2C8H33 (antibody, V domains shown)
VH: B5 VH
VL: B5 VL with T85D, Y87F
notes: Full-length human IgG1
B9: humanized anti-Ang2 antibody 4B9H21 (antibody, V domains shown)
VH: B6 VH with I37V
VL: B5 VL with L4M, F10S, S20T, G30S, D60S, E70D, Y91H, S92Y, Y94T, L96P
notes: Full-length human IgG1
B10: humanized anti-Ang2 antibody 2C8H31 (antibody, V domains shown)
VH: B5 VH
VL: B5 VL with S20T, D60S
notes: Full-length human IgG1
B11: humanized anti-Ang2 antibody 2C8H13 (antibody, V domains shown)
VH: B5 VH with S28T, I48M, K67R, A68V, S69T
VL: B5 VL with T85D, Y87F
notes: Full-length human IgG1
B12: humanized anti-Ang2 antibody 4B9H31 (antibody, V domains shown)
VH: B6 VH with I37V, S49A
VL: B5 VL with L4M, F10S, S20T, G30S, D60S, E70D, Y91H, S92Y, Y94T, L96P
notes: Full-length human IgG1
B13: humanized anti-Ang2 antibody 2C8H53 (antibody, V domains shown)
VH: B5 VH with R38K, M70L, R72V
VL: B5 VL with T85D, Y87F
notes: Full-length human IgG1
B14: humanized anti-Ang2 antibody 2C8H42 (antibody, V domains shown)
VH: B5 VH with R38K
VL: B5 VL
notes: Full-length human IgG1
B15: 2C8H11G4 (human IgG4 class antibody of 2C8H11) (antibody, V domains shown)
VH: B5 VH with S28T, I48M, K67R, A68V, S69T
VL: B5 VL with S20T, D60S
notes: The heavy chain constant region (CH1-hinge-CH2-CH3) was replaced by an IgG4 class constant region; also called 2C8H11-IgG4
B16: humanized anti-Ang2 antibody 2C8H51 (antibody, V domains shown)
VH: B5 VH with R38K, M70L, R72V
VL: B5 VL with S20T, D60S
notes: Full-length human IgG1
B17: humanized anti-Ang2 antibody 2C8H22 (antibody, V domains shown)
VH: B5 VH with K67R, A68V, S69T
VL: B5 VL
notes: Full-length human IgG1
B18: humanized anti-Ang2 antibody 2C8H41 (antibody, V domains shown)
VH: B5 VH with R38K
VL: B5 VL with S20T, D60S
notes: Full-length human IgG1
B19: humanized anti-Ang2 antibody 2C8H52 (antibody, V domains shown)
VH: B5 VH with R38K, M70L, R72V
VL: B5 VL
notes: Full-length human IgG1
B20: humanized anti-Ang2 antibody 2C8H12 (antibody, V domains shown)
VH: B5 VH with S28T, I48M, K67R, A68V, S69T
VL: B5 VL
notes: Full-length human IgG1
B21: humanized anti-Ang2 antibody 2C8H23 (antibody, V domains shown)
VH: B5 VH with K67R, A68V, S69T
VL: B5 VL with T85D, Y87F
notes: Full-length human IgG1
B22: humanized anti-Ang2 antibody 2C8H21 (antibody, V domains shown)
VH: B5 VH with K67R, A68V, S69T
VL: B5 VL with S20T, D60S
notes: Full-length human IgG1

What follows are binders tested against T1, Human Angiopoietin-2 full-length (hAng2) (assay: BLI (Octet), hAng2 fixed on AR2G sensor, antibody 3.125-50 nM in solution, 1:1 global fit).
Experimental: (§1) The affinity of mouse monoclonal antibody against hAng2 was measured using Octet system (ForteBio). Specifically, buffer and samples were measured in total 200 μl/well using Black 96-well plates (96 well F-type black plates, Greiner). […] After the hydration, hAng2 was diluted in 10 mM sodium acetate, pH 6.0 buffer at a concentration of 10 μg/ml, fixed on AR2G biosensor, and blocked with 1M ethanolamine. The mouse monoclonal anti-Ang2 antibodies were diluted to 50, 25, 12.5, 6.25, 3.125, and 0 nM with 1× kinetic buffer, and subjected to association for 300 seconds and dissociation for 900 seconds.
For B1, the Kd was 0.0455 nM, the koff was 3.54e-06 s⁻¹ and the kon was 77800 M⁻¹ s⁻¹.
For B2, the Kd was 4.74 nM, the koff was 0.000134 s⁻¹ and the kon was 28300 M⁻¹ s⁻¹.
B3 showed a Kd of 0.138 nM, a koff of 1.71e-05 s⁻¹ and a kon of 124000 M⁻¹ s⁻¹.
With B4 the Kd was 0.00368 nM, the koff was 5.04e-07 s⁻¹ and the kon was 137000 M⁻¹ s⁻¹.

Each binder was assayed against T1, Human Angiopoietin-2 full-length (hAng2) (assay: BLI (Octet), antibody fixed on AR2G sensor, hAng2 3.125-50 nM in solution, 1:1 global fit).
Experimental: as §1, with “of humanized anti-Ang2” for “of mouse monoclonal”, “hydration, humanized anti-Ang2 antibody” for “hydration, hAng2”, “The recombinant hAng2 was” for “The mouse monoclonal anti-Ang2 antibodies were”, “300 sec” for “300 seconds”, “900 sec.” for “900 seconds.”
The affinities of humanized 2C8 antibodies to hAng2 were in Table 15.
Binder B5 has a Kd of 0.197 nM, a koff of 1.49e-05 s⁻¹ and a kon of 75700 M⁻¹ s⁻¹.
B6 showed a Kd of 0.08 nM, a koff of 3.46e-05 s⁻¹ and a kon of 432000 M⁻¹ s⁻¹.
B7 was tested, and the Kd was 0.373 nM, the koff was 2.65e-05 s⁻¹ and the kon was 71100 M⁻¹ s⁻¹.
In the case of B8, the Kd is reported as 0.0445 nM, the koff is reported as 3.99e-06 s⁻¹ and the kon is reported as 89600 M⁻¹ s⁻¹.
B9 was tested, and the Kd was 0.121 nM, the koff was 8.94e-06 s⁻¹ and the kon was 73700 M⁻¹ s⁻¹.
With B10 the Kd was 0.266 nM, the koff was 2.21e-05 s⁻¹ and the kon was 83200 M⁻¹ s⁻¹.
B11 showed a Kd of 0.246 nM, a koff of 2.77e-05 s⁻¹ and a kon of 113000 M⁻¹ s⁻¹.
Work on B12 yielded a Kd of 0.167 nM, a koff of 1.56e-05 s⁻¹ and a kon of 93900 M⁻¹ s⁻¹.
In the case of B13, the Kd is reported as 0.384 nM, the koff is reported as 3.11e-05 s⁻¹ and the kon is reported as 80900 M⁻¹ s⁻¹.
B14 showed a Kd of 0.381 nM, a koff of 3.07e-05 s⁻¹ and a kon of 80600 M⁻¹ s⁻¹.
Binder B15 has a Kd of 0.0105 nM, a koff of 4.35e-06 s⁻¹ and a kon of 415000 M⁻¹ s⁻¹.
For B16, the Kd was 0.137 nM, the koff was 9.61e-06 s⁻¹ and the kon was 70200 M⁻¹ s⁻¹.
For B17, the Kd was 0.115 nM, the koff was 6.84e-06 s⁻¹ and the kon was 59600 M⁻¹ s⁻¹.
In the case of B18, the Kd is reported as 0.249 nM, the koff is reported as 1.67e-05 s⁻¹ and the kon is reported as 67000 M⁻¹ s⁻¹.
With B19 the Kd was 0.243 nM, the koff was 1.99e-05 s⁻¹ and the kon was 81900 M⁻¹ s⁻¹.
For B20, the Kd was 0.139 nM, the koff was 1.33e-05 s⁻¹ and the kon was 95200 M⁻¹ s⁻¹.
B21 gave a Kd of 0.287 nM, a koff of 2.28e-05 s⁻¹ and a kon of 79500 M⁻¹ s⁻¹.
With B22 the Kd was 0.135 nM, the koff was 1.5e-05 s⁻¹ and the kon was 111000 M⁻¹ s⁻¹.
